Experimental data as given in patent US9957295B2, “Peptides inhibiting cold-inducible RNA binding protein activity” (The Feinstein Institute for Medical Research, priority 2013, dated 2018).

Tests used:
[1] = test system: wild-type and TLR4 knockout mice; assay: rmCIRP injection into wild-type and Tlr4−/− mice; format: in vivo, mouse; settings: 1 or 5 mg/kg BW, after 4 h
Method: Tlr4^−/− mice were incubated with 1.5 μg/ml rmCIRP for 4 h. TNF-α levels in conditioned medium were assayed by ELISA. Data are mean±s.e.m. from three independent experiments. *P<0.05 vs. WT. In comparing the difference among wild-type and knockout mice targeting each receptor in response to rmCIRP, only TLR4-deficient macrophages lost the response for TNF-α induction, while RAGE- and TLR2-deficient macrophages maintained similar responses to wild-type macrophages (FIG. 13A). To confirm the requirement of TLR4 in mediating CIRP activity, wild-type and TLR4 knockout mice were injected with rmCIRP (1 or 5 mg/kg BW) or normal saline (vehicle). After 4 h, serum samples were collected and assayed for TNF-α and IL-6 by ELISA and HMGB1 by Western blotting as well as serum AST and ALT. Data are mean±s.e.m., n=6-9/group, *P<0.05 vs. WT no rmCIRP; #P<0.05 vs. WT with rmCIRP at 5 mg/kg. […] In contrast, these deleterious effects of rmCIRP on the wild-type mice were diminished in Tlr4^−/− mice.

[2] = test system: RAW 264.7 cells; assay: Cytokine release from RAW 264.7 cells stimulated with recombinant CIRP; format: cell-based, murine; settings: for TNF-α release from RAW 264.7 cells (in words): 100 ng/ml, 4 h, or indicated concentrations and times
Method: Murine macrophage-like RAW 264.7 cells were obtained from ATCC (American Type Culture Collection, Manassas, Va.), and were grown in Dulbecco's Modified Eagle's Medium (DMEM, Life Technologies, Grand Island, N.Y.) containing 10% (vol/vol) FBS (heat-inactivated at 56° C. for 30 min), 100 U/ml penicillin, 100 μg/ml streptomycin and 2 mM glutamine. Cells were re-suspended in medium and incubated in 6 or 48-well tissue-culture plates overnight in a humidified incubator (37° C., 5% CO2). In the experiments, cell monolayers were stimulated with or without recombinant CIRP at various indicated concentrations and for various indicated times. The cell-free supernatants were assayed for TNF-α by ELISA or for HMGB1 by western blot analysis.
As an index of the inflammatory cytokine cascade and the acute inflammatory response, supernatants from cells incubated with recombinant CIRP were measured for TNF-α and IL-6 levels in serum, tissue homogenates, and culture medium grown with macrophages using a commercially available enzyme-linked immunosorbent assay (ELISA) kits (BioSource International, Camarillo, Calif.) according to the manufacturer's instruction. To quantify TNF-α and IL-6 protein levels in serum and tissue, serum samples were harvested 4 h after hemorrhage, or 4 h after treatment with recombinant CIRP from animals by cardiac puncture at the time that the rats were sacrificed, and collected tissue samples, and carried out by the same method as above. HMGB1 levels were determined by Western blotting.
To address whether the extracellular CIRP could function as an inflammatory mediator, recombinant murine CIRP (rmCIRP) was expressed and purified using a bacterial expression system with more than 97% purity and confirmation by Western blotting (FIGS. 16A and B). […] J. Immunol. 174, 3306-3316 (2005); Henderson, B., et al. The extracellular signaling actions of molecular chaperones are not due to microbial contaminants. Cell Stress Chaperones 15, 123-141 (2010)). […]
In parallel experiments, cytokines in the supernatant of cultured RAW cells incubated with rCIRP were measured. […]

B1: rmCIRP: recombinant murine (rat sequence) His-tagged CIRP expressed in E. coli (protein)
chain: MASDEGKLFVGGLSFDTNEQALEQVFSKYGQISEVVVVKDRETQRSRGFGFVTFENIDDAKDAMMAMNGKSVDGRQIRVDQAGKSSDNRSRGYRGGSAGGRGFFRGGRSRGRGFSRGGGDRGYGGGRFESRSGGYGGSRDYYASRSQGGSYGYRSSGGSYRDSYDSYATHNEHHHHHH
[1]
  deleterious effects in Tlr4−/− mice: diminished
  serum cytokines and organ injury markers in wild-type mice: increase of serum proinflammatory cytokines (TNF-α, IL-6, and HMGB1) and organ injury markers (AST and ALT) in a dose-dependent manner
[2]
  TNF-α release from RAW 264.7 cells (in words): increased TNF-α release in a dose- and time-dependent manner
[2]; listed as rCIRP
  TNF-α release from RAW 264.7 cells (in words): significantly increased TNF-α release
[2]; 500 ng/ml, 20 h incubation, Western blot
  increase of HMGB1 release from cultured RAW cells: about 6 fold
